# Data published in patent US20170210787A1.
# Key:
# [1] = target: ptau 187-212 (pS202, pT205 by the sequence printed in Table 22) (human); assay: Ala-scan peptide ELISA, 1 ug/mL
# [2] = target: ptau 187-212 (pY197, pT205 by the sequence printed in Table 11) (human); assay: peptide ELISA, 2 ug/mL
# CBTAU-7.1 (antibody), sequence (VH): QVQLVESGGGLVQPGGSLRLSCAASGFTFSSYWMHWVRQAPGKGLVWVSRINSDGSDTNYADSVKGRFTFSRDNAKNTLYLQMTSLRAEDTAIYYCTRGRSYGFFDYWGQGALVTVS
# CBTAU-7.1 (antibody), sequence (VL): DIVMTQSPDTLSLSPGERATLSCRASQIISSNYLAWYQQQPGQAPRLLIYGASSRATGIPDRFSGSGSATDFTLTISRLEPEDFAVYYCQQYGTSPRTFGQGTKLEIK
substance,measurement,setting,value
CBTAU-7.1 (antibody),OD450,[1],> 1.5 od
same,OD450,[2],0.5 to 1 od
